Reference: patent publication US20250002610A1 (Genmab, published 2025)

Key:
[1] = target: T1, human FAPα (Fibroblast activation protein alpha), cell surface expressed (human, UniProt Q12884 1-760); assay: flow cytometry, Expi293F cells expressing human FAPα, n = 1
T1 construct: Endogenous on human lung fibroblasts and CAFs
T1 sequence: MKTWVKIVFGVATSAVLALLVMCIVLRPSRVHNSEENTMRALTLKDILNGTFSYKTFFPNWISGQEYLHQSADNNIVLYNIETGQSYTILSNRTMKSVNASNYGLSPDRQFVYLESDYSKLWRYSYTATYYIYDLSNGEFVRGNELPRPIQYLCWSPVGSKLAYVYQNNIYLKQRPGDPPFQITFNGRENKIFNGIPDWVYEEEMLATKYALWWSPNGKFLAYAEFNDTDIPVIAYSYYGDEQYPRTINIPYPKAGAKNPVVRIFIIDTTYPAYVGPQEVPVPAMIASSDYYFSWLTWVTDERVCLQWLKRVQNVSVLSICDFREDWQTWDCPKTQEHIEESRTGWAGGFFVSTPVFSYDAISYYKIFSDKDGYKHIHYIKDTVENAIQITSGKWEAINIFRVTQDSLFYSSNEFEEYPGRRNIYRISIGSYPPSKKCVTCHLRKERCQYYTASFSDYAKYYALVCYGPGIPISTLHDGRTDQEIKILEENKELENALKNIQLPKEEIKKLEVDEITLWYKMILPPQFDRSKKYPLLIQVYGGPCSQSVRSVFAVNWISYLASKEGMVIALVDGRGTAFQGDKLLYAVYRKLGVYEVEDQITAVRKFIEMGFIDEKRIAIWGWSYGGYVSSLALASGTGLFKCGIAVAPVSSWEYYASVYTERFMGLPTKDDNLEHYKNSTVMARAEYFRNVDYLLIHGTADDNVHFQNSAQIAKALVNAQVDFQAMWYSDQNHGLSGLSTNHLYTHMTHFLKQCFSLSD
Protocol: (§1) Binding of BisG1-FAPα-FERL/DR4-FERR, BisG1-FAPα-FEAL/b12-FEAR and IgG1-FAPα-FERL to FAPα of species commonly used for nonclinical toxicology studies was assessed by flow cytometry using Expi293F cells transiently expressing FAPα from different animal species. IgG1-b12 was included as negative control.
(§2) Expi293F cells expressing recombinant FAPα from various species (human, cynomolgus monkey, dog, pig, rat or mouse) were seeded (20,000 cells/well) in 96-Well round bottom plates (Greiner Bio-one, Cat #650101). Antibody dilutions were prepared using FACS buffer, consisting of PBS (Capricorn Scientific, Cat #PBS-10XA, diluted to 1×PBS in distilled water)+1% BSA (Roche, Cat #10735086001)+0.02% Sodium Azide (Bio-World, Cat #41920044-3). Plates were centrifuged, supernatant was removed, and cells were resuspended in 100 μL of antibody dilutions (concentration range 30-0.00017 μg/mL with three-fold serial dilutions using FACS buffer) of BisG1-FAPα-FERL/DR4-FERR, BisG1-FAPα-FEAL/b12-FEAR, IgG1-FAPα-FERL and IgG1-b12 and incubated for 30 min at 4° C. […] After 30 min incubation at 4° C., cells were washed with FACS buffer and resuspended in FACS buffer supplemented with TO-PRO-3 Iodide viability marker (Invitrogen, Cat #T3605, diluted 1:4,000). Antibody binding to viable cells (gMFI of PE on TO-PRO-3 negative cells) was analyzed by flow cytometry on a FACS Celesta and FACS_Diva software (first two experiments) or iQue® 3 and FlowJo software (last experiment). gMFI was determined and visualized using GraphPad Prism. Binding curves were analyzed using nonlinear regression analysis. The concentration (pg/mL) at which 50% of the maximal effect was observed (EC₅₀) was derived from the fitted curves.

[2] = target: T2, human DR4 (Death Receptor 4), cell surface expressed on human tumor cell lines (human, UniProt O00220 24-468); assay: flow cytometry, A549 cells, average ± SEM
T2 construct: also called TNFRSF10A; TRAIL-R1
T2 sequence: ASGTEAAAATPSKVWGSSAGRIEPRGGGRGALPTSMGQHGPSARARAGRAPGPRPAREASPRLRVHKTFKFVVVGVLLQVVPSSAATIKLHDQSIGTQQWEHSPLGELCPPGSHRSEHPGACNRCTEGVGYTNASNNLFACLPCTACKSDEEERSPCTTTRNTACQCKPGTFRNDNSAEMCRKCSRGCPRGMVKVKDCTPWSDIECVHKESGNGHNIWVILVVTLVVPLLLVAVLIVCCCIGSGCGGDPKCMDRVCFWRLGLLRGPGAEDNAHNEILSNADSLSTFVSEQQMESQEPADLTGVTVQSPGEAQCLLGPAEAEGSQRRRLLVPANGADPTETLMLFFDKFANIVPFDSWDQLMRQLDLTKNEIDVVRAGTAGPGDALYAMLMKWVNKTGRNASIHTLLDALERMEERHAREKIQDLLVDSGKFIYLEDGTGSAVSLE

[3] = target: T1, human FAPα (Fibroblast activation …); assay: flow cytometry, Expi293F cells expressing human FAPα, average ± SEM
Protocol: as §1, §2

[4] = target: T2, human DR4 (Death Receptor 4), cell …; assay: flow cytometry, HCT-15 cells, n = 1
[5] = target: T2, human DR4 (Death Receptor 4), cell …; assay: flow cytometry, A549 cells, n = 3
[6] = target: T1, human FAPα (Fibroblast activation …); assay: flow cytometry, Expi293F cells expressing human FAPα, n = 2
Protocol: as §1, §2

B1: BisG1-FAPα-FERL/DR4-FERR (bispecific antibody, human IgG1, kappa, lambda)
heavy 1: EVQLLESGGGLVQPGGSPRLSCEASGFTFSSYALSWVRQAPGKGLEWVSAISGSGGGRYYADSVKGRFTISRDNSKNTLFLQMNSLRAEDTAVYYCAKEGYSSSGTYWDHWGQGTLVTVSSASTKGPSVFPLAPSSKSTSGGTAALGCLVKDYFPEPVTVSWNSGALTSGVHTFPAVLQSSGLYSLSSVVTVPSSSLGTQTYICNVNHKPSNTKVDKRVEPKSCDKTHTCPPCPAPEFERGPSVFLFPPKPKDTLMISRTPEVTCVVVDVSHEDPEVKFNWYVDGVEVHNAKTKPREEQYNSTYRVVSVLTVLHQDWLNGKEYKCKVSNKALPAPIEKTISKAKGQPREPQVYTLPPSREEMTKNQVSLTCLVKGFYPSDIAVEWESNGQPENNYKTTPPVLDSDGSFLLYSKLTVDKSRWQQGNVFSCSVMHEALHNHYTQKSLSLSPG
light 1: AIQMTQSPSSVSASVGDRVTITCRASQGVSSWLAWYQQKPGRAPKLLIYVASTLQSGVPSRFSGSGSGTDFTLTINSLQPEDFATYYCQQANSFPPTFGQGTRLEMKRTVAAPSVFIFPPSDEQLKSGTASVVCLLNNFYPREAKVQWKVDNALQSGNSQESVTEQDSKDSTYSLSSTLTLSKADYEKHKVYACEVTHQGLSSPVTKSFNRGEC
heavy 2: QVQLQESGPGLVKPSGTLSLTCAVSGGSISSYSWWSWIRQPPGKGLEWIGELYHSGSTNYNPSLKSRVTISVDKSKNQFSLKLRSVTAADTAVYYCVRGVATIDYWGQGTLVTVSSASTKGPSVFPLAPSSKSTSGGTAALGCLVKDYFPEPVTVSWNSGALTSGVHTFPAVLQSSGLYSLSSVVTVPSSSLGTQTYICNVNHKPSNTKVDKRVEPKSCDKTHTCPPCPAPEFERGPSVFLFPPKPKDTLMISRTPEVTCVVVDVSHEDPEVKFNWYVDGVEVHNAKTKPREEQYNSTYRVVSVLTVLHQDWLNGKEYKCKVSNKALPAPIEKTISKAKGQPREPQVYTLPPSREEMTKNQVSLTCLVKGFYPSDIAVEWESNGQPENNYKTTPPVLDSDGSFFLYSRLTVDKSRWQQGNVFSCSVMHEALHNHYTQKSLSLSPG
light 2: QSALTQPPSASGSPGQSVTISCTGTSSDVGGYNFVSWYQQDPGKAPKLLIYEVTKRPSGVPDRFSGSKSGNTASLTVSGLQAEDEADYYCSSYAGSNNVMFGGGTKLTVLGQPKAAPSVTLFPPSSEELQANKATLVCLISDFYPGAVTVAWKADSSPVKAGVETTTPSKQSNNKYAASSYLSLTPEQWKSHRSYSCQVTHEGSTVEKTVAPTECS
notes: Human IgG1 bispecific made by controlled Fab-arm exchange of IgG1-FAPα-FERL and IgG1-DR4-FERR; monovalent for FAPα and for DR4; also called GEN1057
[1]
  EC50: 0.18 µg/mL
[2]
  EC50: 0.89 µg/mL
[3]
  EC50: 0.24 µg/mL
[4]
  EC50: 0.59 µg/mL
[5]
  EC50: 0.87 µg/mL
[6]
  EC50: 0.32 µg/mL
